This note sets out measurements from US20170065702A1.

Positions count from the first letter of the chain named. Like-named read-outs stand apart in the source and are kept apart here.

Assay [1] has as its target Marburg Ravn GP pin peptide … (Marburg virus, Ravn strain). Nature of the assay: pin peptide ELISA, pin printed as D6 beside … (SEQ ID NO: 195), read at 1 hour.
Assay [2] has the same target. Nature of the assay: pin peptide ELISA, pin D5, supernatant diluted 1/5, read at 1 hour. In general terms: In an ELISA, binding on a coated surface is turned into a signal by an enzyme label.
For assay [3] the target is unchanged. Briefly: pin peptide ELISA, pin D4, supernatant diluted 1/5, read at 1 hour.
For assay [4] the target is unchanged. Nature of the assay: pin peptide ELISA, pin D6, supernatant diluted 1/5, read at 1 hour.
Assay [5] shares this target.

B1: CAN54G2 (antibody, V domains shown)
VH: QVQLQQSGTELVRPGTSVKISCKASGYDFTNFWLGWIKQRPGHGLEWIGDIYPGGDNTYYNEKFKGKVTLTADKSSNTAYMQFSSLTSEDSAVYFCFMILYTLDYWGQGTSVTVSS
VL: not shown
On to B1, for which the Absorbance (1 hour) in assay [1] turned out to be 1.85 absorbance.

B2: CAN30G2 (antibody, V domains shown)
VH: DVQLVESGGGLVQPGGSRKLSCTASGFTFSSFGMHWVRQAPEKGLEWVAYISSGSSKIYYADTVKGRFTISRDNPKNTLFLQMTSLRSEDTAMYYCARGWYEGAWFAYWGQGTLVTVSA
VL: DVLMTQTPLSLPVSLGDQASISCRSSQSIVHSNGDTYLEWYLQKPGQSPKLLIYKVSNRFSGVPDRFSGSGSGTDFTLRISRVEAEDLGVYYCFQGSHFPWTFGGGTKLEIK
B2: the Absorbance (1 hour) stood at 0.373 absorbance in assay [2] and 0.848 absorbance in assay [3].

B3: CAN30G3 (antibody, V domains shown)
VH: QVQLKESGPGLVAPSQSLSITCTVSGFSLTDYGITWIRQPPGKGLEWLGVIWGGGSAYYNLVLKSRLSISKDNSKSQVFLKMNSLQTDDTAMYYCAKHRTLITTAMDYWGQGISVTVSS
VL: B2 VL with S28N, D35N, P45S, R79K
As to B3, the Absorbance (1 hour) in assay [2] stood at 1.84 absorbance; in assay [4], 1.12 absorbance.

B4: CAN30G4 (antibody, V domains shown)
VH: EVKLVESGGGLVKSGGSLKLSCAVSGFTFSTYAMSWVRQIPEKRLEWVATISNGGSYIYYSDSVKGRFTISRDNAKNTLYLQMSSLRSEDTAMYYCARHRESYRYDWFAYWGQGTLVTVSA
VL: B2 VL with S28N, N33D, D35N, V56F, R79K, F99V, W101P, G105A, I111L
As for B4, the figures for the Absorbance (1 hour) in assay [2] and in assay [5] were 1.97 absorbance and > 3.9 absorbance, respectively.

B5: CAN30G5 (antibody, V domains shown)
VH: EVQLVESGGGLVQPKGSLKLSCAASGFAFNSYAMHWVCQAPGKGLEWVARIRIKSGNYATSYAGSVTDRFTVSRDDSQNLFYLQMNNLKTEDTAMYYCVREWEGAMDYWGQGTSVTVSS
VL: DIVLTQSPLSLPVSLGDQASISCRSSQSLVHSNGNTYLHWYLQKPGQSPNLLIYKVSNRFSGVPDRFSGSGSGTDFTLKISRVEAEDLGVYFCSQSTHVPWTFGGGTKLEIK
With B5, the Absorbance (1 hour) in assay [3] is 0.631 absorbance; in assay [5] it was > 3.9 absorbance.
